{
  "source": "patent US20190367903",
  "about": "“OLIGONUCLEOTIDE PROBES AND USES THEREOF” (CARIS SCIENCE, INC., published 2019)",
  "binders": {"B1": {"name": "CAR003 (ssRNA)", "RNA": "AUCCAGAGUGACGCAGCAGUCUUUUCUGAUGGACACGUGGUGGUCUAGUAUCACUAAGCCACCGUGUCCA"}},
  "target": "T1, EpCAM (UniProt P16422 P16422:24-265)",
  "T1 sequence": "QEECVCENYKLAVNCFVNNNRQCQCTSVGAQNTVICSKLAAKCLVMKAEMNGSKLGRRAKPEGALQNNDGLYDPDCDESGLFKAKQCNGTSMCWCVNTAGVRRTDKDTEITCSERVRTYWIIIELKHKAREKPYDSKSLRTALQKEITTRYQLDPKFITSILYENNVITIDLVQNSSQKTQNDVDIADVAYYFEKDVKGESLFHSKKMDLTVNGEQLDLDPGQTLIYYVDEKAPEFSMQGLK",
  "experiment": "stated identified by library screening to recognize EpCAM, no data shown",
  "data": [
    {"binder": "B1", "values": [
      {"measurement": "binding result", "value": "binds"}
    ]}
  ]
}
